Measured values from the DeepSol protein solubility set.

Experiment: soluble on expression in E. coli; label from the status in PepcDB or PDB records

Sequence | soluble on expression in E. coli
MSLKRFVAEKMDNQDHWDLNIAPLTNKHIAIVGAGPAGAQAAIELRRQGHEVTIYEKLDVYGGMMRVGIPEYRLPRDVIDFEYSYLAMLGIKTQFGVEIGKDISFDTLRSEHDAVILAHGAHVGSIIPLPGHDNDGVFSAVEYLKEISETRQFPRACKRVMVIGGGDVAMDCARSSWRIGASDVYQCSLESLESLPASQIEIDESLEEGVEFNAGWGPVAIEHENGKVTGITIKKVLSIFDEQGNFAPQYSEESKTISVDTVVFATGQIVADITDGALEQTRGGRYVVDKQTLASSLEDVFVAGDACGGNIVIEAMALGRKAAMSVERFLTARPLTEDRDFEQEYSYSSRLDVPLPKGTVDTPRLHGELRDAEERKQDFAQVDLGFTEEQIKQEASRCLQCSCKLCMTECIMMNDFSDCPKTIFSDFVNNKSMDPLLAYSCNACDQCTIVCPKDFPMKEMFLGARTDFVKANNGESPMPGHKAINMHQKLGFSKIFTMAKRAVSTKEGHHHHHH | soluble
GPGSDGVWLEELEMEPSQYLPDLKEDELLKTPAVMVNLNRPMPEVLQELSKHPVRTRLSLTGTIIVARDSAHARMREMLEAGKPLPQYMKEHPVYYAGPAKQPDGLPSGSFGPTTAGRMDPFVDLFQSHGGSMVMLAKGNRSKQVTKACHKYGGFYLGSIGGPAAVLAQNAIKKVECLDMKDLGMEAVWRIEVENFPAFIVVDDKGNDFFEQL | soluble
MSMLPTFGFTQEQVACVCEVLQQGGNIERLGRFLWSLPACEHLHKNESVLKAKAVVAFHRGNFRELYKILESHQFSPHNHAKLQQLWLKAHYIEAEKLRGRPLGAVGKYRVRRKFPLPRSIWDGEETSYCFKEKSRSVLREWYAHNPYPSPREKRELTEATGLTTTQVSNWFKNRRQRDRAAEAKERENNENSNSNSHNPLNGSGKSVLGSSEDEKTPSGTPDHSSSSPALLLSPPPPGLPSLHSLGHPPGPSAVPVPVPGGGGADPLQHHHGLQDSILNPMSANLVDLGS | soluble
GMHFSKEHINALETRTRAHFINSLSGFKSANLIGTQDRQGNTNLSIVSSVIHLGANPPLMGMIIRPHSVPRHTFENIMQTGLYTINHVNQSIYEQAHQTSARYDKDESEFEATGLTPEYLSDFCAPFVKESRLKYSVKLVEHQHLAINGTEFVIGEIVDVYVDDNAVQTDGFIDLQAIDTVAISGLDCYYTGDKLARLPYAKK | soluble
VSLDKKLMPVPDGHPDVFDREWPLRVGDIDRAGRLRLDAACRHIQDIGQDQLREMGFEETHPLWIVRRTMVDLIRPIEFGDMLRCRRWCSGTSNRWCEMRVRVDGRKGGLIESEAFWIHVNRETEMPARIADDFLAGLHRTTSVDRLRWKGYLKPGSRDDASEIHEFPVRVTDIDLFDHMNNAVYWSVIEDYLASHAELLRGPLRVTIEHEAPVALGDKLEIISHVHPAGSTEIFGPGLVDRAVTTLTYVVGDEPKAVASLFNL | soluble
LTFSLNFTNKSNDIYGTGWLFDWKGDEKALGIDGSFVPSITSNIDNSLLKDDQFTVYLATNLHVADALRNDQDYEPYKKDQNKQDFTENTKTEFFSLGK | soluble
MVELTPAAIQELERLQTHGVRRGQAAILRIQVQPSECGDWRYDLALVAEPKPTDLLTQSQGWTIAIAAEAAELLRGLRVDYIEDLMGGAFRFHNPNASQTCGCGMAFRVSRS | soluble
ETGGERQLSPEKSEIWGPGLKADVVLPARYFYIQAVDTSGNKFTSSPGEKVFQVKVSAPEEQFTRVGVQVLDRKDGSFIVRYRMYASYKNLKVEIKFQGQHVAKSPYILKG | soluble
SDWKEVLRRRLATPNTCPNKKKSEQELKDEEMDLFTKYYSEWKGGRKNTNEFYKTIPRFYYRLPAEDEVLLQKLREESRAVFLQRKSRELLDNEELQNLWFLLDKHQTPPMIGEEAMINYENFLKVGEKAGAKCKQFFTAKVFAKLLHTDSYGRISIMQFFNYVMRKVWLHQTRIGLSLYDVAGQGYLRESDLENYILELIPTLPQLDGLEKSFYSFYVCTAVRKFFFFLDPLRTGKIKIQDILACSFLDDLLELRDEELSKESQETNWFSAPSALRVYGQYLNLDKDHNGMLSKEELSRYGTATMTNVFLDRVFQECLTYDGEMDYKTYLDFVLALENRKEPAALQYIFKLLDIENKGYLNVFSLNYFFRAIQELMKIHGQDPVSFQDVKDEIFDMVKPKDPLKISLQDLINSNQGDTVTTILIDLNGFWTYENREALVANDSENSADLDDT | soluble
MSLGRIGLRKLLQRIGIVAESMTPLATDPVEVTQLLDARWYDERLRALADELGRDPDSVRAEAAGYLREMAASLDERAVQAWRGFSRWLMRAYDVLVDEDQITQLRKLDRKATLAFAFSHRSYLDGMLLPEAILANRLSPALTFGGANLNFFPMGAWAKRTGAIFIRRQTKDIPVYRFVLRAYAAQLVQNHVNLTWSIEGGRTRTGKLRPPVFGILRYITDAVDEIDGPEVYLVPTSIVYDQLHEVEAMTTEAYGAVKRPEDLRFLVRLARQQGERLGRAYLDFGEPLPLRKRLQEMRADKSGTGSEIERIALDVEHRINRATPVTPTAVVSLALLGADRSLSISEVLATVRPLASYIAARNWAVAGAADLTNRSTIRWTLHQMVASGVVSVYDAGTEAVWGIGEDQHLVAAFYRNTAIHILVDRAVAELALLAAAETTTNGSVSPATVRDEALSLRDLLKFEFLFSGRAQFEKDLANEVLLIGSVVDTSKPAAAADVWRLLESADVLLAHLVLRPFLDAYHIVADRLAAHEDDSFDEEGFLAECLQVGKQWELQRNIASAESRSMELFKTALRLARHRELVDGADATDIAKRRQQFADEIATATRRVNTIAELARRQEGHHHHHH | soluble
GSWDWNLITGEVCWSDELYHIFGRSPQESGATYDEFLSYVHPDDRDRVDNALKKGLNGESVAGNYRIILGDGEERIVRTEAEVVFDEK | not soluble
MACLTDLVNLNLSDTTEKIIAEYIWIGGSGMDLRSKARTLPGPVTDPSKLPKWNYDGSSTGQAPGEDSEVILYPQAIFKDPFRRGNNILVMCDCYTPAGEPIPTNKRYSAAKIFSSPEVAAEEPWYGIEQEYTLLQKDTNWPLGWPIGGFPGPQGPYYCGIGAEKSFGRDIVDAHYKACLYAGINISGINGEVMPGQWEFQVGPSVGISSGDQVWVARYILERITEIAGVVVTFDPKPIPGDWNGAGAHTNYSTESMRKEGGYEVIKAAIEKLKLRHKEHIAAYGEGNERRLTGRHETADINTFSWGVANRGASVRVGRETEQNGKGYFEDRRPASNMDPYVVTSMIAETTIVWKP | soluble
MSLAFVCLAIGCLYTFLISTTFGCTSSSDTEIKVNPPQDFEIVDPGYLGYMYLQWQPPLSLDHFKECTVEYELKYRNIGSETWKTIITKNLHYKDGFDLNKGIEAKIHTMLPWQCTNGSEVQSSWAETTYWISPQGIPETKVQDMDCVYYNWQYLLCSWKPGIGVLLDTNYNLFYWYEGLDHALQCVDYIKADGQNIGCRFPYLEASDYKDFYICVNGSSENKPIRSSYFTFQLQNIVKPLPPVYLTFTRESSCEIKMKWSIPLGPIPARCFDYEIEIREDDTTLVTATVENETYTLKTTNETRQLCFVVRSKVNIYCSDDGIWSEWSDKQCWEGEDLSKKTEGHHHHHH | not soluble
MATKKATMIIEKDFKIAEIDKRIYGSFIEHLGRAVYGGIYEPGHPQADENGFRQDVIELVKELQVPIIRYPGGNFVSGYNWEDGVGPKEQRPRRLDLAWKSVETNEIGLNEFMDWAKMVGAEVNMAVNLGTRGIDAARNLVEYCNHPSGSYYSDLRIAHGYKEPHKIKTWCLGNEMDGPWQIGHKTAVEYGRIACEAAKVMKWVDPTIELVVCGSSNRNMPTFAEWEATVLDHTYDHVDYISLHQYYGNRDNDTANYLALSLEMDDFIRSVVAIADYVKAKKRSKKTIHLSFDEWNVWYHSNEADKLIEPWTVAPPLLEDIYNFEDALLVGCMLITLMKHADRVKIACLAQLVNVIAPIMTEKNGPAWKQTIYYPFMHASVYGRGVALHPVISSPKYDSKDFTDVPYLESIAVYNEEKEEVTIFAVNRDMEDALLLECDVRSFEDYRVIEHIVLEHDNVKQTNSAQSSPVVPHRNGDAQLSDRKVSATLPKLSWNVIRLGKR | soluble
LSQEETELELLRQFDLAWQYGPCTGITRLQRWHRAEQMGLKPPVEVYQVLKTHPEDSRFQCSLWHLYPL | not soluble
MTTIKLIVNSVSKSERESIIAALHGQSIFNGGGLSPLNKISPSHPPKPATVAVPEETEKKARDVNEKTALLKKKSATELGELATSINTIARDAHMEANLEMEIVPQGLRVLIKDDQNRNMFERGSAQIMPFFKTLLVELAPVFDSLDNKIIITGHTDAMAYKNNIYNNWNLSGDRALSARRVLEEAGMPEDKVMQVSAMADQMLLDAKNPQSAGNRRIEIMVLTKSASDTLYQYFGQHGDKVVQPLVQKLDKQQVLSQRTR | not soluble
MAHHHHHHMGTLEAQTQGPGSMQVKLSQERAKELAENASFIASPGKGILAADESTGTIQKRFDNVGVENTEKNRAEYRSILFTTKGLGKYISGCILFEETLFQQAPNGQNMVDLLRAEGILPGIKVDKGLVTIPNTDEEVSTTGLDGLAERCQKYYNAGARFAKWRAVLSIDVKKNKPSNLSILETAHTLARYAAICQENGLVPIVEPEILADGDHSIEVCAEVTERVLAAVFKALNDHKVLLEGALLKPNMVTQGVDCKDKPAPQTVGFLTSRALRRTVPPALPGVMFLSGGQSESMATRHLNEINKCNKHPWSLSFSYGRALQSSVLKTWNGSMSNAAAAQDVLMKLAQQNSEASLGSLKTDLSDDGESLFEAKYIY | soluble
MPNFWALPPEINSTRIYLGPGSGPILAAAQGWNALASELEKTKVGLQSALDTLLESYRGQSSQALIQQTLPYVQWLTTTAEHAHKTAIQLTAAANAYEQARAAMVPPAMVRANRVQTTVLKAINWFGQFSTRIADKEADYEQMWFQDALVMENYWEAVQEAIQSTSHFEDPPEMADDYDEAWMLNTVFDYHNENAKEEVIHLVPDVNKERGPIELVTKVDKEGTIRLVYDGEPTFSYKEHPKF | not soluble
FLYSNTSYRTLYLAAILYKAKADIRIVHDHLNHTSLADLKFKKYVYNHFKTQGQVIYFICTKKIQKRLRMTADQCARVNLLSNIAD | soluble
GPGSMYSKTPCVLGMPYEAAGAVLCNNPYRSQALSWYRKFLKAAFTVPWETDDDALYVMEESRRLFRQNARLTDVEMIQRKLREAEMRYELGVHYRIPYPRPVHKMQGSLQESGVPYAADLDSMYDHPVNPRTGRISEGSANYGVMGGVDNSNELLEGEMGADAEDFSK | soluble
MRIPRIYHPISLENQTQCYLSEDAANHVARVLRMTEGEQLELFDGSNHIYPAKIIESNKKSVKVEILGRELADKESHLKIHLGQVISRGERMEFTIQKSVELGVNVITPLWSERCGVKLDAERMDKKIQQWQKIAIAACEQCGRNIVPEIRPLMKLQDWCAENDGALKLNLHPRAHYSIKTLPTIPAGGVRLLIGSEGGLSAQEIAQTEQQGFTEILLGKRVLRTETASLAAISALQICFGDLGEAAAAAALEHHHHHH | soluble
GQQKNMENKTLNENIPEMIISLEKEALASTDPMAFVELSDTDVIYFDPSLETKIEGLEQLRTYYKGMQLPPADHFDMIRPVVQVAQNIAVLTFNLDSYLSDKVIKWNCTEVYRRNPDNQWKIIQTHWSYVKPLD | soluble
MSRKIPKEPTTRPAFNAYEKHVRDINNFVIPYQRENKYKKVVGETDLDVLKREYRFIRESEEEDAKSWETRLARRHYERLYKDYAIAELSQWREGSVGFRWLNQTEVLQGKGYSCCAATDCDSASELNTFEVPFTYEEDGETKATLVKVRLCRSCQVKMRESYRIAREKLK | soluble
